One data set has as its target Asp143 (UniProt position 143, LSGFVDGTENP). Briefly: kinetics. The settings on record: 25 °C; 2 µM enzyme in 5 mM phosphate citrate buffer, pH 7.0, mixed with H2O2 in 100 mM phosphate citrate buffer, pH 3.0-8.0, or 100 mM glycine NaOH buffer, pH 8.0-10.0; ferric high-spin resting enzyme, folded, reacting with H2O2.
In data set [1] the target is KpDyP variant R232A (Klebsiella pneumoniae). Description: SEC-MALS; HPLC-SEC combined with multiangle light scattering; data not shown; conditions not given.
For data set [2], the target named is KpDyP variant D143A (Klebsiella pneumoniae). The data set is described as above.
In data set [3] the target is KpDyP double variant D143A/R232A (Klebsiella pneumoniae). The description is as above.
Data set [4] deals with the molecule itself. The description is as above.

In the case of “B-class dye-decolorizing peroxidase (KpDyP) (Klebsiella pneumoniae)”, the pKa result in the data set with Asp143 is on record as “far below 4.0”. For KpDyP variant R232A (enzyme), the stoichiometry N (as a rule, the number of molecules, sites or subunits per partner or assembly) in data set [1] turned out to be 2. On to KpDyP variant D143A (enzyme), for which the stoichiometry N in data set [2] was found to be 2. For the molecule “KpDyP double variant D143A/R232A (enzyme)”, the stoichiometry N in data set [3] was determined as 2.

B1: WT B-class dye-decolorizing peroxidase from Klebsiella pneumoniae (KpDyP) (enzyme, UniProt A0A0W8ATM9 1-299, looked up)
chain: MSQVQSGILPEHCRAAIWIEANLKGDVNALREASKIFVDNVATFQAKFPDAKLGAVVAFGNNVWRQLSGGEGADELKDFPVYGKGLAPSTQYDLLIHILSARHEVNFSVAQAALAAFGDAIDVKEEIHGFRWVEERDLSGFVDGTENPAGEETRREVAVIKDGVDAGGSYVFVQRWEHNLKQLNRMSVPDQEMMIGRTKDANEEIDGDERPVTSHLSRVDLKEDGKGLKIVRQSLPYGTASGTHGLYFCAYCARLYNIEQQLLSMFGDTDGKRDAMLRFTKPVTGGYYFAPSLERIQAL
notes: B-class dye-decolorizing peroxidase (KpDyP), Klebsiella pneumoniae; codon-optimized DNA cloned into pGEX-6P1 with primers that run from the ATG start to the stop codon; about 35 kDa per subunit; One heme b per subunit; also called WT KpDyP; source: E. coli BL21 (DE3) pLysS, purified (GSTrap, on-column HRV 3C cleavage, SEC)
On to B1, for which the “stoichiometry N” value in data set [4] is 2.

(Values after publication PMC6153280, “Roles of distal aspartate and arginine of B-class dye-decolorizing peroxidase in heterolytic hydrogen peroxide cleavage” (The Journal of Biological Chemistry, 2018).)
